Laboratory results published in patent US20210032299A1 (Eli Lilly, published 2021).
Starred links: 1 amine or outer side, 2 acyl side, 3 side chain; linkers in the order of their positions; H or OH if unused. Non-standard residues stand in square brackets, D forms with d. Groups on a side chain read outwards from the residue. No end group written: not given here. *: point of attachment. C20 diacid = O=C(O)CCCCCCCCCCCCCCCCCCC(=O)*; γGlu = O=C(O)[C@H](CCC(=O)[*:2])N[*:1]; αMeF = C[C@](N)(Cc1ccccc1)C(=O)O; 4Pal = N[C@@H](Cc1ccncc1)C(=O)O; αMeL = CC(C)C[C@](C)(N)C(=O)O; AEEA = NCCOCCOCC(=O)O; Aib = CC(C)(N)C(=O)O

Legend:
[1] = molecular target: T1, human glucose-dependent insulinotropic polypeptide (GIP) receptor (human, UniProt P48546 22-466); test: SPA, displacement of [125I]-GIP from hGIPR membranes, 0.1% bacitracin
T1 construct: whole, on cells; Assayed as crude membranes of stably transfected CHO cells; also called hGIPR; human GIP receptor
T1 sequence (looked up): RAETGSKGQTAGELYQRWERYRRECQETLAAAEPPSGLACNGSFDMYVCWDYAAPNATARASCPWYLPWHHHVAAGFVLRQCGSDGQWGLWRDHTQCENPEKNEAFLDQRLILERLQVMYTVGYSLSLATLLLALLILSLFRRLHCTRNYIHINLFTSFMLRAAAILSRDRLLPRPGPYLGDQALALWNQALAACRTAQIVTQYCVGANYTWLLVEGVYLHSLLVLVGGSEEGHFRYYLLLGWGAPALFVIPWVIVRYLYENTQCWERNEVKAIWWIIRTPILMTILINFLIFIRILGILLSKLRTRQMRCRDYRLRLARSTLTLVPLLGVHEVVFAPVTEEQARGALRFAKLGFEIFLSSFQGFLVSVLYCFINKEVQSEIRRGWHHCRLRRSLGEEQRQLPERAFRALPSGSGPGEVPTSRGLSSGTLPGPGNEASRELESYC

human glucagon receptor = molecular target: T2, human glucagon receptor (human, UniProt P47871 26-477); test: SPA, displacement of [125I]-Gcg from hGcgR membranes, 0.1% bacitracin
T2 construct: whole, on cells; Assayed as crude membranes of stably transfected HEK293 cells; also called hGcgR; GcgR
In short: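 Binding buffer: 25 mM HEPES pH 7.4, 2.5 mM CaCl₂, 1 mM MgCl₂, 0.003% Tween-20, protease inhibitors without EDTA. Counted by scintillation after 12 h incubation/settling at room temperature. Four-parameter nonlinear fit; Kᵢ given as geometric mean ± SEM of independent replicates run on different days.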

human GLP-1 receptor = molecular target: T3, human GLP-1 receptor (human, UniProt P43220 24-463); test: SPA, displacement of [125I]-GLP-1 from hGLP-1R membranes, 0.1% bacitracin
T3 construct: whole, on cells; Assayed as crude membranes of stably transfected HEK293 cells; also called hGLP1R; hGLP-1R
In short: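 Binding buffer: 25 mM HEPES pH 7.4, 2.5 mM CaCl₂, 1 mM MgCl₂, 0.1% bacitracin, 0.003% Tween-20, protease inhibitors without EDTA. Four-parameter nonlinear regression; Kᵢ given as geometric mean ± SEM, n = independent replicates run on different days.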

T2 sequence (P47871 26-477): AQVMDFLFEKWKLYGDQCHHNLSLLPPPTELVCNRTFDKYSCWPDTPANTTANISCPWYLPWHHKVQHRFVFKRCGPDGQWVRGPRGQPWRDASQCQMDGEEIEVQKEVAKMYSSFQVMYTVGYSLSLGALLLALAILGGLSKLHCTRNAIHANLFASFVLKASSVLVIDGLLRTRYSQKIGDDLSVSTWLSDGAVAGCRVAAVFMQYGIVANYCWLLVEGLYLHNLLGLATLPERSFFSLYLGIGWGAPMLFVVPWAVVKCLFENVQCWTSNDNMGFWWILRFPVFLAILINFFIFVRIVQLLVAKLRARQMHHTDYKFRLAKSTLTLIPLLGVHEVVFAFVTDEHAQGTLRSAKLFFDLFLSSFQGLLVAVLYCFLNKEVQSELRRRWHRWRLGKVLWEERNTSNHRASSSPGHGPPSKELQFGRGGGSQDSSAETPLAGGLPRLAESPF

B1: Example 56 (peptide)
peptide: Y[Aib]EGTFISDYSI[αMeL]LDKK([AEEA-AEEA-γGlu-C20 diacid])HQ[Aib]D[αMeF]VE[4Pal]LLAGGPSSGAPPPS-NH2
modifications: N-terminus assumed
SMILES: CC[C@H](C)[C@H](NC(=O)[C@H](Cc1ccccc1)NC(=O)[C@@H](NC(=O)CNC(=O)[C@H](CCC(=O)O)NC(=O)C(C)(C)NC(=O)[C@@H](N)Cc1ccc(O)cc1)[C@@H](C)O)C(=O)N[C@@H](CO)C(=O)N[C@@H](CC(=O)O)C(=O)N[C@@H](Cc1ccc(O)cc1)C(=O)N[C@@H](CO)C(=O)N[C@H](C(=O)N[C@@](C)(CC(C)C)C(=O)N[C@@H](CC(C)C)C(=O)N[C@@H](CC(=O)O)C(=O)N[C@@H](CCCCN)C(=O)N[C@@H](CCCCNC(=O)COCCOCCNC(=O)COCCOCCNC(=O)CC[C@H](NC(=O)CCCCCCCCCCCCCCCCCCC(=O)O)C(=O)O)C(=O)N[C@@H](Cc1c[nH]cn1)C(=O)N[C@@H](CCC(N)=O)C(=O)NC(C)(C)C(=O)N[C@@H](CC(=O)O)C(=O)N[C@@](C)(Cc1ccccc1)C(=O)N[C@H](C(=O)N[C@@H](CCC(=O)O)C(=O)N[C@@H](Cc1ccncc1)C(=O)N[C@@H](CC(C)C)C(=O)N[C@@H](CC(C)C)C(=O)N[C@@H](C)C(=O)NCC(=O)NCC(=O)N1CCC[C@H]1C(=O)N[C@@H](CO)C(=O)N[C@@H](CO)C(=O)NCC(=O)N[C@@H](C)C(=O)N1CCC[C@H]1C(=O)N1CCC[C@H]1C(=O)N1CCC[C@H]1C(=O)N[C@@H](CO)C(N)=O)C(C)C)[C@@H](C)CC
B1 showed a Ki [1] of 0.0487 nM, a Ki (human glucagon receptor) of 193 nM and a Ki (human GLP-1 receptor) of 530 nM.

B2: Example 76 (peptide)
peptide: YXEGTXISDYSIXLDXKHQXDFVEXLLEGGPSSGAPPPS
modifications: Aib2; Iva6; αMeL13; Orn16; K17((2-[2-(2-Amino-ethoxy)-ethoxy]-acetyl)2-(γ-Glu)-CO-(CH2)18-CO2H); Aib20; 4-Pal25; C-terminal amide
Binder B2 has a Ki [1] of 0.0293 nM, a Ki (human glucagon receptor) of 358 nM and a Ki (human GLP-1 receptor) of 263 nM.

B3: Example 68 (peptide)
peptide: Y[Aib]EGTFISDYSI[αMeL]LDKK([AEEA-AEEA-γGlu-C20 diacid])HQ[Aib]DFVEYLLEAGPSSGAPPPS-NH2
modifications: N-terminus assumed
SMILES: CC[C@H](C)[C@H](NC(=O)[C@H](Cc1ccccc1)NC(=O)[C@@H](NC(=O)CNC(=O)[C@H](CCC(=O)O)NC(=O)C(C)(C)NC(=O)[C@@H](N)Cc1ccc(O)cc1)[C@@H](C)O)C(=O)N[C@@H](CO)C(=O)N[C@@H](CC(=O)O)C(=O)N[C@@H](Cc1ccc(O)cc1)C(=O)N[C@@H](CO)C(=O)N[C@H](C(=O)N[C@@](C)(CC(C)C)C(=O)N[C@@H](CC(C)C)C(=O)N[C@@H](CC(=O)O)C(=O)N[C@@H](CCCCN)C(=O)N[C@@H](CCCCNC(=O)COCCOCCNC(=O)COCCOCCNC(=O)CC[C@H](NC(=O)CCCCCCCCCCCCCCCCCCC(=O)O)C(=O)O)C(=O)N[C@@H](Cc1c[nH]cn1)C(=O)N[C@@H](CCC(N)=O)C(=O)NC(C)(C)C(=O)N[C@@H](CC(=O)O)C(=O)N[C@@H](Cc1ccccc1)C(=O)N[C@H](C(=O)N[C@@H](CCC(=O)O)C(=O)N[C@@H](Cc1ccc(O)cc1)C(=O)N[C@@H](CC(C)C)C(=O)N[C@@H](CC(C)C)C(=O)N[C@@H](CCC(=O)O)C(=O)N[C@@H](C)C(=O)NCC(=O)N1CCC[C@H]1C(=O)N[C@@H](CO)C(=O)N[C@@H](CO)C(=O)NCC(=O)N[C@@H](C)C(=O)N1CCC[C@H]1C(=O)N1CCC[C@H]1C(=O)N1CCC[C@H]1C(=O)N[C@@H](CO)C(N)=O)C(C)C)[C@@H](C)CC
B3 gave a Ki [1] of 0.0948 nM, a Ki (human glucagon receptor) of 290 nM and a Ki (human GLP-1 receptor) of 421 nM.

B4: Example 71 (peptide)
peptide: Y[Aib]EGTFISDYSI[αMeL]LDKK([AEEA-AEEA-γGlu-C20 diacid])HQ[Aib]DFVEWLLETGPSSGAPPPS-NH2
modifications: N-terminus assumed
SMILES: CC[C@H](C)[C@H](NC(=O)[C@H](Cc1ccccc1)NC(=O)[C@@H](NC(=O)CNC(=O)[C@H](CCC(=O)O)NC(=O)C(C)(C)NC(=O)[C@@H](N)Cc1ccc(O)cc1)[C@@H](C)O)C(=O)N[C@@H](CO)C(=O)N[C@@H](CC(=O)O)C(=O)N[C@@H](Cc1ccc(O)cc1)C(=O)N[C@@H](CO)C(=O)N[C@H](C(=O)N[C@@](C)(CC(C)C)C(=O)N[C@@H](CC(C)C)C(=O)N[C@@H](CC(=O)O)C(=O)N[C@@H](CCCCN)C(=O)N[C@@H](CCCCNC(=O)COCCOCCNC(=O)COCCOCCNC(=O)CC[C@H](NC(=O)CCCCCCCCCCCCCCCCCCC(=O)O)C(=O)O)C(=O)N[C@@H](Cc1c[nH]cn1)C(=O)N[C@@H](CCC(N)=O)C(=O)NC(C)(C)C(=O)N[C@@H](CC(=O)O)C(=O)N[C@@H](Cc1ccccc1)C(=O)N[C@H](C(=O)N[C@@H](CCC(=O)O)C(=O)N[C@@H](Cc1c[nH]c2ccccc12)C(=O)N[C@@H](CC(C)C)C(=O)N[C@@H](CC(C)C)C(=O)N[C@@H](CCC(=O)O)C(=O)N[C@H](C(=O)NCC(=O)N1CCC[C@H]1C(=O)N[C@@H](CO)C(=O)N[C@@H](CO)C(=O)NCC(=O)N[C@@H](C)C(=O)N1CCC[C@H]1C(=O)N1CCC[C@H]1C(=O)N1CCC[C@H]1C(=O)N[C@@H](CO)C(N)=O)[C@@H](C)O)C(C)C)[C@@H](C)CC
B4 showed a Ki [1] of 0.0422 nM, a Ki (human glucagon receptor) of 102 nM and a Ki (human GLP-1 receptor) of 347 nM.

B5: Example 72 (peptide)
peptide: Y[Aib]EGTLISDYSI[αMeL]LDKK([AEEA-AEEA-γGlu-C20 diacid])HQ[Aib]EFVEYLLETGPSSGAPPPS-NH2
modifications: N-terminus assumed
SMILES: CC[C@H](C)[C@H](NC(=O)[C@H](CC(C)C)NC(=O)[C@@H](NC(=O)CNC(=O)[C@H](CCC(=O)O)NC(=O)C(C)(C)NC(=O)[C@@H](N)Cc1ccc(O)cc1)[C@@H](C)O)C(=O)N[C@@H](CO)C(=O)N[C@@H](CC(=O)O)C(=O)N[C@@H](Cc1ccc(O)cc1)C(=O)N[C@@H](CO)C(=O)N[C@H](C(=O)N[C@@](C)(CC(C)C)C(=O)N[C@@H](CC(C)C)C(=O)N[C@@H](CC(=O)O)C(=O)N[C@@H](CCCCN)C(=O)N[C@@H](CCCCNC(=O)COCCOCCNC(=O)COCCOCCNC(=O)CC[C@H](NC(=O)CCCCCCCCCCCCCCCCCCC(=O)O)C(=O)O)C(=O)N[C@@H](Cc1c[nH]cn1)C(=O)N[C@@H](CCC(N)=O)C(=O)NC(C)(C)C(=O)N[C@@H](CCC(=O)O)C(=O)N[C@@H](Cc1ccccc1)C(=O)N[C@H](C(=O)N[C@@H](CCC(=O)O)C(=O)N[C@@H](Cc1ccc(O)cc1)C(=O)N[C@@H](CC(C)C)C(=O)N[C@@H](CC(C)C)C(=O)N[C@@H](CCC(=O)O)C(=O)N[C@H](C(=O)NCC(=O)N1CCC[C@H]1C(=O)N[C@@H](CO)C(=O)N[C@@H](CO)C(=O)NCC(=O)N[C@@H](C)C(=O)N1CCC[C@H]1C(=O)N1CCC[C@H]1C(=O)N1CCC[C@H]1C(=O)N[C@@H](CO)C(N)=O)[C@@H](C)O)C(C)C)[C@@H](C)CC
Work on B5 yielded a Ki [1] of 0.0594 nM, a Ki (human glucagon receptor) of 837 nM and a Ki (human GLP-1 receptor) of 437 nM.

B6: Example 73 (peptide)
peptide: Y[Aib]EGTLISDYSI[αMeL]LDKK([AEEA-AEEA-γGlu-C20 diacid])HQ[Aib]EFVEYLLEGGPSSGAPPPS-NH2
modifications: N-terminus assumed
SMILES: CC[C@H](C)[C@H](NC(=O)[C@H](CC(C)C)NC(=O)[C@@H](NC(=O)CNC(=O)[C@H](CCC(=O)O)NC(=O)C(C)(C)NC(=O)[C@@H](N)Cc1ccc(O)cc1)[C@@H](C)O)C(=O)N[C@@H](CO)C(=O)N[C@@H](CC(=O)O)C(=O)N[C@@H](Cc1ccc(O)cc1)C(=O)N[C@@H](CO)C(=O)N[C@H](C(=O)N[C@@](C)(CC(C)C)C(=O)N[C@@H](CC(C)C)C(=O)N[C@@H](CC(=O)O)C(=O)N[C@@H](CCCCN)C(=O)N[C@@H](CCCCNC(=O)COCCOCCNC(=O)COCCOCCNC(=O)CC[C@H](NC(=O)CCCCCCCCCCCCCCCCCCC(=O)O)C(=O)O)C(=O)N[C@@H](Cc1c[nH]cn1)C(=O)N[C@@H](CCC(N)=O)C(=O)NC(C)(C)C(=O)N[C@@H](CCC(=O)O)C(=O)N[C@@H](Cc1ccccc1)C(=O)N[C@H](C(=O)N[C@@H](CCC(=O)O)C(=O)N[C@@H](Cc1ccc(O)cc1)C(=O)N[C@@H](CC(C)C)C(=O)N[C@@H](CC(C)C)C(=O)N[C@@H](CCC(=O)O)C(=O)NCC(=O)NCC(=O)N1CCC[C@H]1C(=O)N[C@@H](CO)C(=O)N[C@@H](CO)C(=O)NCC(=O)N[C@@H](C)C(=O)N1CCC[C@H]1C(=O)N1CCC[C@H]1C(=O)N1CCC[C@H]1C(=O)N[C@@H](CO)C(N)=O)C(C)C)[C@@H](C)CC
For B6, the Ki [1] was 0.036 nM, the Ki (human glucagon receptor) was 292 nM and the Ki (human GLP-1 receptor) was 117 nM.
